Target: T1, SND1 recombinant protein (Origene, TP300059) (human, UniProt Q7KZF4 1-910, site-specific cysteine labeling with the RED-MALEIMIDE 2nd Generation kit (fluorescent dye))
T1 chain: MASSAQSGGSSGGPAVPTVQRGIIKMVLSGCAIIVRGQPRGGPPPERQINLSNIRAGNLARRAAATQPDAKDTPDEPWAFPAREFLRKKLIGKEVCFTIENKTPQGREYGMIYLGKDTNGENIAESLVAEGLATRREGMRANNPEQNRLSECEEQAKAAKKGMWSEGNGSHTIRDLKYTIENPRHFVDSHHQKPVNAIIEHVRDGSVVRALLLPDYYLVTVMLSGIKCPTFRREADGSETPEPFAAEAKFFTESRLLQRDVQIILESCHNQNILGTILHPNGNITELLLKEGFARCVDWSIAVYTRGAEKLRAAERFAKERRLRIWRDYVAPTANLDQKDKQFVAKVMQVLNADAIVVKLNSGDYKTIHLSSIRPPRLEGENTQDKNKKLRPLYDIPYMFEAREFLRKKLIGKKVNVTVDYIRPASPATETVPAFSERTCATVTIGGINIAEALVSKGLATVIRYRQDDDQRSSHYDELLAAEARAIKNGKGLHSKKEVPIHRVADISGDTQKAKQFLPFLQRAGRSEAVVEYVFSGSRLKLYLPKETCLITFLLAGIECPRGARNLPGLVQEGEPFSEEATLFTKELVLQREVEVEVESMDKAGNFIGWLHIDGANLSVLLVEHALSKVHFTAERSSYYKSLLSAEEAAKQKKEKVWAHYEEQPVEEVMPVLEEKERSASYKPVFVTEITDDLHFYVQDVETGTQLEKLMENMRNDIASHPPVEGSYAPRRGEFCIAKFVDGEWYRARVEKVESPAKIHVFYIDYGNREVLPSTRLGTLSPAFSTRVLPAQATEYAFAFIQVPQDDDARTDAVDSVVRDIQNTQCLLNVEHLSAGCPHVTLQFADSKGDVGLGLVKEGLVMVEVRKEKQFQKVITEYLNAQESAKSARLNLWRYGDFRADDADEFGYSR
Test: MST

B1: NSP9 recombinant protein (Abcam, ab289608) (natural protein)
chain: NNELSPVALRQMSCAAGTTQTACTDDNALAYYNTTKGGRFVLALLSDLQDLKWARFPKSDGTGTIYTELEPPCRFVTDTPKGPKVKYLYFIKGLNNLNRGMVLGSLAATVRLQ
- Kd: 8.8 µM
